According to patent publication US20040170601A1, “Method of improving the growth performance of an animal” (priority 2001, published 2004):
Where “and” joins values, the source holds several entries; their conditions need not be identical. Identical values can stand only once. Entries after “also recorded” stand apart in the source; their conditions may differ.

How the values were obtained:
eosinophils [1] = test: Example 11: IL-5 and IL-3 on eosinophil production; type: in vivo, pigs; details: single cytokine 100 μg IM days 0, 3, 7, 10
Description: The aim of this example was to determine if the effects of IL-3 and IL-5 act synergistically to increase eosinophil levels and antibody production.
As IL-3 stimulates the proliferation of pre-active B cells prior to the effects of IL-5, it was believed that administration of both IL-3 and IL-5 would have a greater impact on eosinophil production than the administration of either cytokine alone. An experiment was undertaken using pigs raised under clean PC2 conditions with raised floors. There were 5 treatments with 6 pigs per treatment. Pigs were 5-6 weeks of age. The animals were injected intramuscularly on days 0, 3, 7 and 10 of the experiment with either recombinant cytokines or saline. The treatments include IL-5 and IL-3 alone and given either together at the same time at different sites or to the same animal but with IL-3 being administered one week before IL-5. The treatments were as follows:
Group 3—100 μg IL-3+100 μg IL-5 (separate sites)
The pigs were bled 4 times per week for the first 2 weeks and once per week for the following 2 weeks and haematology measured using a CellDyn machine. Sera were collected also each week and tested for antibody levels.

[2] = tested on: cell populations in the blood; test: Example 9: porcine IL-3 on blood cell populations; type: in vivo, pigs
Method: This trial examined the effect of administering recombinant porcine IL-3 protein on cell populations in the blood of pigs.
(§1) The experiment was conducted using medicated feed (Barastoc EziWean 150 then Bunge Grolean) ad libitum in an experimental environment (PC2 containment facilities).
Injections were administered intramuscularly in the hind leg. Pigs were 9 weeks of age at commencement of trial.
Blood samples were taken for haematology on days 0, 1, 2, 3, 4, 7, 9, 11, 15 and 17. Full haematology analysis was performed, using the Abbott Cell-Dyn 3700 and examination of selected smears were done for confirmation.

[3] = Example 8: growth performance of pigs administered IL-3 in a commercial piggery; type: in vivo
Method: This trial evaluated the capacity of IL-3 to improve growth performance and immunity of pigs by comparing the growth rate and health of weaner pigs (28 day old weaners is Day 0 of the trial and the weaner period continued for 42 days) through to the finisher stage (Days 93 to 113) and slaughter (133 days after commencing the trial), which were administered with the recombinant porcine cytokine, IL-3, and saline was used as a control, with and without standard weaner medicated water and feed in a commercial piggery environment.
40 pigs per treatment were mixed in groups, with 4 replicates containing standard medicated water and feed and 4 replicates without medicated feed or water.
Overall weights for each group at the start of the experiment were equivalent. All pigs at the start of the trial (Day 0) were 28 day old male weaners.
IL-3 was provided in saline to inject 1 ml/pig.
Weights were measured at start, throughout the experiment and at the end of experiment. The trial continued for 133 days after the commencement ie. final weights were determined and animals slaughtered 133 days after the start of the weaning period. Weaning Days 0-42, Grower period Days 42-93, Finisher period Days 93-133. Treatments were administered during the weaner period only.
Blood and sera samples collected at start (before treatments) and end of the weaner period. Blood and sera were taken prior to injecting samples.
Recombinant porcine IL-3 was expressed in E. coli and purified using a polyHis tag system as described in Example 4. IL-3 was tested for biological activity in a bioassay prior to the start of the experiment.

eosinophils [4] = test: Example 10: porcine IL-3 on cell populations over a longer duration; type: in vivo, pigs; details: 100 μg IL-3 twice weekly for 2 weeks, followed to day 57
Method: This trial compared the effects of recombinant porcine IL-3 protein on eosinophil numbers in the blood of pigs over 8 weeks.
as §1
Injections were administered intramuscularly in the hind leg. Pigs were 5 weeks of age at commencement of trial. Blood samples were taken for haematology on days 0 (prior to injection), 1, 2, 3, 4, 7, 8, 10, 11, 15, 22, 29, and 57. Full haematology analysis was performed, using the Abbott Cell-Dyn 3700. Examination of selected smears was done for confirmation.

IL-6 = test: Example 12: IL-6 in peripheral blood by RT-PCR after App challenge; type: in vivo, pigs; details: day 13 after challenge
Method: (§2) Due to the intermittent availability of Actinobacillus pleuropneumoniae (App), the App challenge was performed separately on the 2 rooms, resulting in different time schedules for each room, as outlined in Table 9. Prior to each challenge, pigs were treated with recombinant cytokines, flunix or plasmids as described above; the timing of treatments with respect to challenge is described in Table 9. Pigs were anaesthetised and infected intratracheally with 7.5×10^5 […] on day 0.
(§3) […] Blood was assayed for immunological parameters as previously described.
(§4) Briefly, assays were performed on blood samples using standard techniques, including: white blood cell counts performed using an automated cell counter; differential cell counts performed manually on stained blood smears; lymphocyte subset enumeration via flow cytometry; neutrophil function determined by flow cytometry; lymphocyte proliferation determined using a thymidine incorporation assay in response to mitogens; total IgG and IgA levels were identified using indirect sandwich ELISA; levels of mRNA for pro-inflammatory cytokines was detected by RT-PCR. TNF levels were additionally measured in serum by bioassay using L929 target cells. Pigs were weighed weekly from delivery of plasmids and for 2 weeks after challenge.

[5] = tested on: Brachyspira (Serpulina) hyodysenteriae; test: Example 13: swine dysentery challenge, IL-4 prophylactic; type: in vivo, pigs
Description: The aim of this example was to determine whether IL-4 could improve the health of pigs infected with an enteric inflammatory pathogen causing swine dysentery, Brachyspira (Serpulina) hyodysenteriae. A further aim was to determine whether IL-4 could improve the growth rate of pigs under conditions of challenge with swine dysentery.
Male pigs with a mean starting weight of 6.5 kg, were allocated to treatment groups consisting of eight pigs (Table 10). Pigs were housed in group pens, with each pen containing a replicate from each of the treatment groups. One group of 8 pigs was housed in a separate room and left uninfected to act as untreated controls. Pigs were provided with pelleted feed and water ad libitum.
Prior to swine dysentery challenge, pigs were treated with recombinant IL-4 or saline, as described in Table 10. Cytokines and the antibiotic, Lincocin, were delivered by intramuscular injection at intervals outlined in Table 11. Pigs were infected with Brachyspira hyodysenteriae at day 0, day 1 and day 2, given as an oral bolus of 120ml of spirochaete culture in log phase of growth, containing approximately […] cells.
Faecal swabs and blood samples were taken from each pig at intervals described in Table 11. Faecal swabs were cultured for the presence of spirochaetes. Blood samples were assayed for immunological parameters as described in example 1 above. Pigs were weighed at weekly intervals throughout the experiment, which was terminated by euthanasia on days 19 and 20 after the initial challenge. At post mortem swabs from areas of the hindgut were cultured for the presence of spirochaetes, and the gross pathological condition of the gastro-intestinal tissue noted.

[6] = tested on: Actinobacillus pleuropneumoniae; test: Example 12: Actinobacillus pleuropneumoniae (App) challenge: growth, clinical signs, lung pathology; type: in vivo, pigs
Description: The following experiment was designed to determine whether IL-4 could improve the growth of immunologically challenged pigs compared to saline treated controls and positive controls treated with the non-steroidal anti-inflammatory drug (NSAID) Flunix. It was also devised to determine whether IL-4 could be delivered via plasmids.
Male pigs, with a mean starting weight of 52 kg, were allocated to 5 treatment groups (Table 8). Pigs were housed in group pens, with each pen containing a replicate from each of the treatment groups. Pigs were provided with pelleted feed and water ad libitum.
Recombinant IL-4 and saline were administered as 2 ml doses, given subcutaneously behind the ear. Plasmids were administered in 1 ml doses, given intramuscularly in the hind-leg. Flunix was administered as a 2 ml dose according to the manufacturer's instructions, and delivered intramuscularly in the neck. The timetable of administration is outlined in Table 9 below.
as §2, §4
IL-4 delivered as a recombinant caused a reduction of 36% in the presence of clinical symptoms compared to pigs treated with saline, while IL-4 delivered in plasmid form produced a reduction of 62% compared to saline-treated controls (45% reduction compared to plasmid-treated controls).
At the conclusion of the trial, pigs were euthanased and the lungs removed for post-mortem examination. Lungs were scored for pleurisy from 0-5 (FIG. 79) and the degree of pleuropneumonia was determined by weighing affected lung and expressed as a percentage of total lung weight (FIG. 80).

TNFα = test: Example 12: TNFα in serum after App challenge (bioassay, L929 target cells); type: in vivo, pigs; details: day 13 after challenge
Method: as §2, §3, §4

[7] = day 7 prior to challenge to slaughter at days 19 and 20

Molecule: interleukin 3 [IL-3]
- eosinophils as a percent of white blood cells (eosinophils [1]): did not significantly increase the percentage of eosinophils; also recorded: minor increases in comparison
- absolute eosinophils in blood ([2]; 100 μg IL-3 daily for 5 days): increase in eosinophils
- absolute eosinophils in blood ([2]; 500 μg IL-3 single dose on day 0): smaller increases
- basophil numbers ([2]; pig, in vivo): increase in basophil numbers
- eosinophil index (area under the curves) ([2]; pig, in vivo): although there was a biological trend it was not statistically significant
- average warm carcass weight at slaughter above respective saline control ([3]; medicated): approximately 4 kg/pig
- average weights during the trial ([3]; medicated): consistently showed higher average weights than all other groups
- final average weight higher than saline medicated control ([3]; medicated): over 3.5 kg
- increase in total weight of all pigs compared to saline medicated group ([3]; medicated): approximately 10%
- individual weight range ([3]; medicated): more consistent weight range than other groups
- rate of gain during the weaner period ([3]; medicated and un-medicated): increased the rate of gain over the medicated and un-medicated saline controls
- FCR (food conversion ratio) ([3]; medicated, finisher stage): 2.52
- % dressing ([3]; un-medicated): substantially higher % dressing than the respective un-medicated saline control
- average warm carcass weight at slaughter above respective saline control ([3]; un-medicated): ~2 kg/pig
- absolute numbers of eosinophils in peripheral blood (eosinophils [4]): statistically significant increase in eosinophils

B1: interleukin 4 (protein, UniProt Q04745 25-133, looked up)
Interleukin-4: HKCDITLQEIIKTLNILTARKNSCMELPVTDVFAAPENTTEKETFCRASTVLRHIYRHHTCMKSLLSGLDRNLSSMANMTCSVHEAKKSTLKDFLERLKTIMKEKYSKC
notes: recombinant IL-4 protein
- production of IL-6 (IL-6): undetectable levels
- spirochaete shedding in faeces (faecal culture) ([5]; after challenge): decreasing levels of spirochaete shedding by day 14 after challenge
- reduction in the number of spirochaetes compared to saline treated pigs ([5]; anterior colon): 93%
- gross pathology associated with dysentery ([5]; anterior colon, post mortem): reduced the signs of pathology associated with dysentery, and the severity of the pathology compared to saline in the anterior colon
- reduction in the number of spirochaetes compared to saline treated pigs ([5]; caecum): 91%
- improvement in gain compared to saline or antibiotic treatment [5, 7]: 24%
- total weight gained over the challenge period [5, 7]: 8.5 kg
- improvement in end weight vs saline treated pigs ([5]; days 19 and 20): 11% and 12%
- mean weight at the end of the trial ([5]; days 19 and 20 after infection): 15.1 kg
- reduction in the number of spirochaetes compared to saline treated pigs ([5]; faecal): 86%
- heavier than pigs treated with Lincocin at the end of the trial ([5]; pig, in vivo): 15%
- number of spirochaetes cultured from the hindgut at post mortem ([5]; pig, in vivo): significantly reduced the number of spirochaetes residing in the gut compared to saline controls; also recorded: performed as well as the Lincocin antibiotic treatment in reducing the number of spirochaetes in the caecum and colon
- variability of weight ([5]; pig, in vivo): reduce variability by increasing the weight gained by smaller pigs
- incidence of clinical signs in faeces (of 8 pigs) ([5]; post mortem): 3 pigs
- pigs showing bloody and mucoid faeces (of 8 pigs) ([5]; post mortem): 1 pig
- reduction in the number of spirochaetes compared to saline treated pigs ([5]; posterior colon): 84%
- gross pathology associated with dysentery ([5]; posterior colon, post mortem): completely prevented the development of pathology in the posterior colon
- reduction in the presence of clinical symptoms compared to saline ([6]; 30 visits in first week of challenge): 36%
- heavier than saline treated peers at the termination of the experiment ([6]; after 2 weeks of challenge): 4.8 kg
- improvement in growth vs saline ([6]; after 2 weeks of challenge): 73%
- clinical signs of disease ([6]; first week of challenge): slightly reduced clinical signs of disease compared to saline-treated controls
- growth during the (first) week of App challenge ([6]; pig, in vivo): positive growth during the week of challenge
- growth in the second week of challenge ([6]; pig, in vivo): continued to gain weight
- pleurisy at necropsy (score 0-5) ([6]; pig, in vivo): same level of pleurisy as saline-treated controls
- weight gain over the 2 week period following challenge with App ([6]; pig, in vivo): increased weight gain compared to saline-treated controls, although this result was not statistically significant
- percentage of lung affected by App lesions ([6]; vs saline-treated controls): greatly reduced
- TNFα production (serum) (TNFα): reduced levels of TNF production
